We go through one molecule from US20170296524A1.

This experiment deals with T1, MCT1 (monocarboxylate transporter 1), endogenous (human), P53985.
T1 chain: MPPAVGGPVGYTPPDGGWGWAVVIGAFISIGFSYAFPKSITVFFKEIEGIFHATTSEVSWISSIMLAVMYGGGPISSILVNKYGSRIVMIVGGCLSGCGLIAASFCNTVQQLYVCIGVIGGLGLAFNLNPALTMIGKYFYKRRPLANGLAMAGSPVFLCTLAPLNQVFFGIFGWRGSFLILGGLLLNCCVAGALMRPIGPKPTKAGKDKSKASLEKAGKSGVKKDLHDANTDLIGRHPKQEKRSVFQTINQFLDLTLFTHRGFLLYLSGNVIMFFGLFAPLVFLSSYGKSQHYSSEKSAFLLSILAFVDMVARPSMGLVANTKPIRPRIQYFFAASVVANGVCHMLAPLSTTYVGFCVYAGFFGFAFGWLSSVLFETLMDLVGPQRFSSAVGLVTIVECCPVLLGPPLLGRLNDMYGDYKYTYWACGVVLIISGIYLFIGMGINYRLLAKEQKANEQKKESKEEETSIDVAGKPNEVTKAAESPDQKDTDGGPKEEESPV
As to the kind of experiment: tandem affinity purification of CRBN-SF, mass spectrometry. The settings on record: remark: other sources report otherwise.

B1: Strep-Flag tagged CRBN (CRBN-SF), Q96SW2 1-442 (protein, human, UniProt Q96SW2 1-442, looked up, not shown: small tags and cut ends)
chain: MAGEGDQQDAAHNMGNHLPLLPAESEEEDEMEVEDQDSKEAKKPNIINFDTSLPTSHTYLGADMEEFHGRTLHDDDSCQVIPVLPQVMMILIPGQTLPLQLFHPQEVSMVRNLIQKDRTFAVLAYSNVQEREAQFGTTAEIYAYREEQDFGIEIVKVKAIGRQRFKVLELRTQSDGIQQAKVQILPECVLPSTMSAVQLESLNKCQIFPSKPVSREDQCSYKWWQKYQKRKFHCANLTSWPRWLYSLYDAETLMDRIKKQLREWDENLKDDSLPSNPIDFSYRVAACLPIDDVLRIQLLKIGSAIQRLRCELDIMNKCTSLCCKQCQETEITTKNEIFSLSLCGPMAAYVNPHGYVHETLTVYKACNLNLIGRPSTEHSWFPGYAWTVAQCKICASHIGWKFTATKKDMSPQKFWGLTRSALLPTIPDTEDEISPDKVILCL
B1 returned a unique peptides identified in the screen (unique peptides) of 6.
